According to patent publication US20060008891A1, “Cathepsin G-related peptides as modulators of formylpeptide receptors (FPR)” (The Government of USA as repersented by the Secretary, …, priority 2004, published 2006):

Assays:
[1] = molecular target: epitope-tagged human FPR stably expressed on rat basophilic leukemia (RBL) cells (ETFR cells) (human) (UniProt P21462); experiment: displacement of 3 nM ^3[H]-fMLF from ETFR cells, filter binding
[2] = molecular target: human formylpeptide receptor (FPR), native or wild type, on cells (human) (UniProt P21462); experiment: displacement of 3 nM ^3[H]-fMLF from human monocytes, filter binding
[3] = tested on: PKCα/β; experiment: PKCα/β translocation in ETFR cells; format: cell-based, rat; conditions: 100 nM fMLF, 10 μg/ml CaG or PMA 500 nM, 37° C. 10 min
Method: (§1) ETFR cells were seeded on coverslips and cultured overnight in DMEM containing 1% FCS at 37° C. After further culture in FCS-free DMEM for 3 h, cells were treated with stimulants for indicated time periods at 37° C. and were then fixed in 4% paraformaldehyde for 5 min at room temperature. The cells were permeabilized with 0.2% Tween 20 for 30 min at 4° C. and the reaction was blocked with 5% goat normal serum for 15 min at room temperature. The rabbit anti-PKCα/β, δ, and ξ, antibodies (1:1000 in DPBS) were applied separately for 1 h at room temperature. After three rinses with DPBS, the cells were stained with FITC-labeled goat anti-rabbit secondary antibody (PharMingen, 1:1000 in DPBS) for 1 h at room temperature. The coverslips were mounted with an anti-fade, water-based mounting medium with Propidium Iodide (PI) (Vector Lab, Burlingamem, Calif.) and analyzed under a laser scanning confocal fluorescence microscope (Zeiss LSM510 NLO Meta, Jena, Germany). Excitation wavelengths 488 (for FITC) and 568 (for PI) nm were used to generate fluorescence emission in green and red, respectively.

[4] = tested on: PKC isozymes; experiment: PKC translocation in parental RBL cells; format: cell-based, rat; conditions: 100 nM fMLF, 10 μg/ml CaG or PMA 500 nM, 37° C. 10 min
[5] = tested on: PKCδ; experiment: PKCδ translocation in ETFR cells; format: cell-based, rat; conditions: 100 nM fMLF, 10 μg/ml CaG or PMA 500 nM, 37° C. 10 min
Method: as §1, with “The cells were permeabilized with 0.2% Tween 20 for 30 min at 4° C. and the reaction was blocked with 5% goat normal serum for 15 min at room temperature.” left out, “Germany).” for “Germany). Excitation wavelengths 488 (for FITC) and 568 (for PI) nm were used to generate fluorescence emission in green and red, respectively.”

[6] = tested on: parental RBL cells; experiment: Chemotaxis assay, parental RBL cells; format: cell-based, rat; conditions: parental RBL cells without FPR
Method: Human PBMC were isolated from leukopacks obtained through the courtesy of Transfusion Medicine Department, National Institutes of Health Clinical Center (Bethesda, Md.) by Ficoll-Hypaque density gradient centrifugation. Monocytes were purified from human PBMC by Percoll gradient to yield>90% pure preparations. […] H. Ali and R. Snyderman, Duke University (Durham, N.C.) and maintained in the presence of 0.8 mg/ml geneticin (G418, Life Technologies, Rockville, Md.) in DMEM supplemented with 10% FCS. B. Chemotaxis assay Migration of phagocytes and ETFR cells was assessed using a 48-well microchemotaxis chamber (Neuroprobe, Cabin John, Md.) as previously described (Hu et al. (2001) J Leukoc Biol 70 15512). Briefly, different concentrations of stimulants were placed in the wells of the lower compartment of the chamber, and 50 μl cells (1.5×10^6 cells/ml for monocyte and neutrophil, 1×10^6 ETFR cells/ml) were added to the wells of the upper compartment. The lower and upper compartments were separated by either a 5-μm (for monocyte) or a 10-μm pore size, collagen-coated (for ETFR cells) polycarbonate filter (Osmonics, Livermore, Calif.). After incubation at 37° C. in humidified air with 5% CO2 (60 min for neutrophils, 90 min for monocytes, 4.5 h for ETFR cells), the filter was removed and stained, and the cells migrating across the filter were counted with light microscopy. […]

[7] = tested on: PKCζ; experiment: PKCζ translocation in ETFR cells (confocal microscopy); format: cell-based, rat; conditions: 100 nM fMLF, 10 μg/ml CaG or PMA 500 nM, 37° C. 10 min
Method: as §1

[8] = tested on: ERK1/2; experiment: Phosphorylation of ERK1/2 in ETFR cells (Western blot); format: cell-based, rat; conditions: ETFR cells; fMLF at 100 nM
Method: ETFR cells were plated in Petri dishes and cultured in DMEM at 37° C. in humidified 5% CO2 atmosphere for 48 h. After further culture in serum-free DMEM overnight, the cells were treated with stimulants for indicated time periods. The reaction was stopped by adding 1 ml ice-cold PBS, and the cells were lysed in 1×SDS lysis buffer (62.5 mM Tris-HCl, 2% w/v SDS, 10% glycerol, 50 mM DTT, pH 6.8) and harvested into tubes for sonication. Proteins (50 μg for each sample) were resolved by SDS-PAGE and transferred onto nitrocellulose membranes (Bio-Rad, Hercules, Calif.). The membranes were blocked for 2 h at room temperature in 3% non-fat milk prepared in Tris-buffered saline-T (10 mM Tris-HCl, pH 7.5, 150 mM NaCl, 0.1% Tween 20) and probed with anti-p-ERK1/2, p-p38 MAPK, or p-Akt (1:1000) at room temperature for 1-2 h or at 4° C. overnight. The membranes were then washed and incubated with horseradish peroxidase-conjugated secondary antibodies diluted in Tris-buffered saline-T for 1 h at room temperature. The immune complexes on the membranes were visualized using ECL reagents. Total ERK1/2, p38 MAPK, and Akt were visualized by stripping the same membrane and probing with antibodies against total ERK1/2, p38 MAPK, and Akt.

[9] = tested on: monocytes; experiment: Chemotaxis assay, monocytes; format: cell-based, human; conditions: pre-incubation fMLF 100 nM or MMK-1 5 μM, 37° C. 30 min, washing; CaG 10 μg/ml
Method: Human PBMC were isolated from leukopacks obtained through the courtesy of Transfusion Medicine Department, National Institutes of Health Clinical Center (Bethesda, Md.) by Ficoll-Hypaque density gradient centrifugation. Monocytes were purified from human PBMC by Percoll gradient to yield>90% pure preparations. […] H. Ali and R. Snyderman, Duke University (Durham, N.C.) and maintained in the presence of 0.8 mg/ml geneticin (G418, Life Technologies, Rockville, Md.) in DMEM supplemented with 10% FCS. B. Chemotaxis assay Migration of phagocytes and ETFR cells was assessed using a 48-well microchemotaxis chamber (Neuroprobe, Cabin John, Md.) as previously described (Hu et al. (2001) J Leukoc Biol 70 15512). Briefly, different concentrations of stimulants were placed in the wells of the lower compartment of the chamber, and 50 μl cells (1.5×10^6 cells/ml for monocyte and neutrophil, 1×10^6 ETFR cells/ml) were added to the wells of the upper compartment. The lower and upper compartments were separated by either a 5-μm (for monocyte) or a 10-μm pore size, collagen-coated (for ETFR cells) polycarbonate filter (Osmonics, Livermore, Calif.). After incubation at 37° C. in humidified air with 5% CO2 (60 min for neutrophils, 90 min for monocytes, 4.5 h for ETFR cells), the filter was removed and stained, and the cells migrating across the filter were counted with light microscopy. The results are presented as the mean number of cells (±SD) in three high power fields (HPFs). […] After thorough washing with cold medium (RPMI 1640, 1% BSA), the cells were resuspended and assayed. To measure the effect of various signaling inhibitors, unless otherwise indicated, the cells were pre-incubated at 37° C. for 60 min with the inhibitors, and were then added to the upper wells of the chemotaxis chamber.

[10] = molecular target: T1, epitope-tagged human FPR stably expressed on rat basophilic leukemia (RBL) cells (ETFR cells), P21462
T1 chain: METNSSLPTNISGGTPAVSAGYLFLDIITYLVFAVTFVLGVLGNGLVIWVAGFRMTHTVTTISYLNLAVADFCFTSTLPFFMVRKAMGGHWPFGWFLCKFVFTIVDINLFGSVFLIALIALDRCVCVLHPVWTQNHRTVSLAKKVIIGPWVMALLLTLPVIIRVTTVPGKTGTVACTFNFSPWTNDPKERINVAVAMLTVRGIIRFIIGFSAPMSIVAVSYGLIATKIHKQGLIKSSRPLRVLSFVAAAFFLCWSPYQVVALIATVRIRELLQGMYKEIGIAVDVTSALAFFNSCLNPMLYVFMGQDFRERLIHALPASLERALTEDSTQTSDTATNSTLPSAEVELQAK

[11] = molecular target: T2, human formylpeptide receptor (FPR), native or wild type, on cells, P21462
T2 chain: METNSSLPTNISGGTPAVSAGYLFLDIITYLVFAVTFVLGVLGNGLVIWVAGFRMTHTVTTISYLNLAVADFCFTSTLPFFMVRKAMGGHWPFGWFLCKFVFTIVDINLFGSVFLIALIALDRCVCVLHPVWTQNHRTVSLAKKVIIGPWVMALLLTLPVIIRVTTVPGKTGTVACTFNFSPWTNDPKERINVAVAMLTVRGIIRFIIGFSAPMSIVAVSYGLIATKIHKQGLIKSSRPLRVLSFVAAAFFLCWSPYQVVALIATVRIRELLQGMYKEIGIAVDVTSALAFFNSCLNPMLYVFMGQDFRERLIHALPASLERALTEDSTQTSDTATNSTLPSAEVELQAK

[12] = molecular target: T3, epitope-tagged human FPR stably expressed on rat basophilic leukemia (RBL) cells (ETFR cells) (human, UniProt P21462 1-350); experiment: binding of ^125I-CaG (25 nM) to ETFR cells with increasing unlabeled ligand, analysed with the LIGAND program
T3 construct: whole, on cells; also called RBL cells transfected with FPR; not shown: neither its identity nor its position on FPR is stated
T3 sequence (looked up): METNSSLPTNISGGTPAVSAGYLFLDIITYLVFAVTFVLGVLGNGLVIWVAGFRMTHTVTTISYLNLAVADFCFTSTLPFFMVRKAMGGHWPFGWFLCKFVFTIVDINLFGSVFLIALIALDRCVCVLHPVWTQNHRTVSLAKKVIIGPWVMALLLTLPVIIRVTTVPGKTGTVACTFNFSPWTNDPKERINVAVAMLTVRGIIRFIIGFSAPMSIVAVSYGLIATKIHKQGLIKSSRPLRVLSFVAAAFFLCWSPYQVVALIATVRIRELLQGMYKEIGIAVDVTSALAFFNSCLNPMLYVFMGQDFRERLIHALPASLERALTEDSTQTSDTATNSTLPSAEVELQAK

[13] = molecular target: T4, human formylpeptide receptor (FPR), native or wild type, on cells (human, UniProt P21462 1-350); experiment: displacement of 3 nM ^3[H]-fMLF from human monocytes by unlabeled CaG, filter binding
T4 construct: whole, on cells; Used for assays on human monocytes and neutrophils (endogenous FPR) and on HEK293 cells transfected with wild type FPR
T4 sequence (looked up): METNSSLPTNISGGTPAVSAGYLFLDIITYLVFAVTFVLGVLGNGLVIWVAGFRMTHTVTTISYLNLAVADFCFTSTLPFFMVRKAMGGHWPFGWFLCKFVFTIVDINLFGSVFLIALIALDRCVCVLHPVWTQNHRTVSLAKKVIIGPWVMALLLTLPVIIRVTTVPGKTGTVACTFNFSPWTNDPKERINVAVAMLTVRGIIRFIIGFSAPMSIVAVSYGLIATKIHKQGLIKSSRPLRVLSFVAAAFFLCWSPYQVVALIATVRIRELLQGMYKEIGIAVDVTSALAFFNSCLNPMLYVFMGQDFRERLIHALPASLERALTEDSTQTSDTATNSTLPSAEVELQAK
Excerpt: (§2) The cells were then filtered onto Whatman paper discs, which were air-dried and measured for Remission.

[14] = molecular target: T3, epitope-tagged human FPR stably …; experiment: displacement of 3 nM ^3[H]-fMLF from ETFR cells by unlabeled CaG, filter binding
Excerpt: as §2

synthetic N-formyl peptide fMLF (formyl-methionyl-leucyl-phenylalanine)
IC50 [1]: 0.003 µM
IC50 [2]: 0.003 µM

CSCC[C@H](NC=O)C(=O)N[C@@H](CC(C)C)C(=O)N[C@@H](Cc1ccccc1)C(=O)O [fMLF, formyl-methionyl-leucyl-phyenyalanine]
translocation of PKCα/β [3]: promoted the translocation of not only PKCξ, but also PKCα/β
PKC translocation in parental RBL cells [4]: Neither CaG nor fMLF stimulated PKC translocation in parental RBL cells
translocation of PKCδ [5]: did not induce translocation of PKCδ
migration of parental RBL cells [6]: Neither CaG nor fMLF induced migration of parental RBL cells
translocation of PKCζ [7]: promoted the translocation of not only PKCξ, but also PKCα/β
time of maximal effect on p-ERK [8]: 1 min
attenuation of monocyte chemotaxis to CaG after pre-incubation with agonist [9]: attenuated monocyte response to CaG

B1: Cathepsin G (CaG), purified from neutrophil granules (protein)
chain: IIGGRESRPHSRPYMAYLQIQSPAGQSRCGGFLVREDFVLTAAHCWGSNINVTLGAHNIQRRENTQQHITARRAIRHPQYNQRTIQNDIMLLQLSRRVRRNRNVNPVALPRAQEGLRPGTLCTVAGWGRVSMRRGTDTLREVQLRVQRDRQCLRIFGSYDPRRQICVGDRRERKAAFKGDSGGPLLCNNVAHGIVSYGKSSGVPPEVFTRVSSFLPWIRTTMRS
phosphorylation of ERK1/2, p38 MAPK and Akt (Western blot) [10]: CaG also positively and rapidly (within 1-5 min) activated ERK1/2 (FIG. 5 A), p38 MAPK (FIG. 5 C), and Akt (FIG. 5 D)
monocyte migration (chemotaxis), concentration of maximal activity [11]: CaG dose-dependently induced monocyte migration (FIG. 1A), which reached maximal activity at a concentration of 5 µg/ml of the protein (200 nM)

B2: Cathepsin G (CaG), purified from neutrophil granules (enzyme)
chain: IIGGRESRPHSRPYMAYLQIQSPAGQSRCGGFLVREDFVLTAAHCWGSNINVTLGAHNIQRRENTQQHITARRAIRHPQYNQRTIQNDIMLLQLSRRVRRNRNVNPVALPRAQEGLRPGTLCTVAGWGRVSMRRGTDTLREVQLRVQRDRQCLRIFGSYDPRRQICVGDRRERKAAFKGDSGGPLLCNNVAHGIVSYGKSSGVPPEVFTRVSSFLPWIRTTMRS
modifications: iodinated (^125I, chloramine-T method) in the direct binding assay only
Kd [12]: 0.085 µM
IC50 [13]: 0.1 µM
IC50 [14]: 0.1 µM
